According to the supplement of paper PMC10567573:

B1: TOR1AIP2 (parent)
chain: SPGHSSAGQEGEDTLRRRLLAPEA
B2: HESX1 (parent)
chain: HVPNPPSGISFPSVVDHPMPEERA
B3: FBXO33 (parent)
chain: RLRGLLRVLRGRPGAGSRRRGRMA

Variants of: B1
Assay: protein stability index of a GFP-peptide fusion (GPS, HEK-293T) (PSI 1-6); higher = more stable
Details: c terminus: a fixed tail appended
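Also: lentivirally expressed fusions sorted by FACS into six bins by GFP to DsRed ratio, PSI derived from sequencing read proportions per bin multiplied by bin number.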

Variant	protein stability index
E23R	4.77
E23I	4.1
E23A	4.71
E23F	3.78
E23M	4.47
E23W	3.98
E23H	4.09
E23G	4.67
E23Q	4.59
E23K	4.95
E23N	4.46
E23C	4.42
E23Y	3.59
E23D	4.15
E23V	4.38
E23S	4.46
E23P	5.13
E23L	3.87
E23T	4.53
A21W	4.16
A21N	4.9
A21Y	4.38

Variant	protein stability index
A21Q	4.94
A21V	4.86
A21P	5.09
A21R	4.89
A21T	5.39
A21S	3.08
A24V	4.59
A24I	4.2
A24L	3.02
A24N	4.83
A24Y	3.42
A24H	4.43
A24F	3.98
A24Q	4.82
A24T	4.61
A24R	4.54
A24K	4.82
A24P	4.94
A24C	4.27
A24E	5.36
A24M	2.76
A24D	5.29

Variant	protein stability index
A24S	4.35
A24G	5.14
A24W	2.94
P22R	4.99
P22C	4.41
P22M	4.93
P22W	4.84
P22V	4.8
P22E	4.95
P22G	5.11
P22L	4.59
P22S	4.92
P22T	4.47
P22Q	5.42
P22N	5.76
P22I	5.16
P22D	5.34
P22F	4.92
P22Y	4.41
P22A	4.42
P22K	5.46
P22H	5.27

Variants of: B2
Assay: as above
Details: c terminus: a fixed tail appended

Variant	protein stability index
M19A	2.99
M19G	2.44
P18W	2.28
E22N	2.02
E22A	2.72
E22D	2.76
F11I	4.39
F11S	4.86
F11C	4.39
F11N	4.54
F11W	2.54
H17M	2.52
H17L	2.39
H17T	2.94
H17C	2.39
D16W	1.57
D16G	2.18
S10E	3.39
S10W	1.97
S10Q	2.42
S13E	3.65
E21N	2.37
P3R	2.27
S7T	2.75
P12N	3.98
P12G	3.82

Variant	protein stability index
P12D	4.85
P12R	3.42
P20K	2.54
P20V	2.55
V2M	5.26
V2G	5.17
H1D	5.46
H1S	5.2
I9H	3.24
I9V	2.94
R23N	2.73
P6F	1.59
G8A	3.2
G8T	2.91
V15T	3.13
V15Y	3.03
V15H	3.23
V15M	3.49
N4V	2.71
V14Q	4.01
V14D	4.63
V14I	3.11
V14R	3.75
V14K	3.45
V14T	3.49

Variants of: B3
Assay: as above
Details: c terminus: a fixed tail appended

Variant	protein stability index
G21I	2.32
G21R	3.38
G21H	1.66
G21P	1.69
G21L	1.57
G21C	1.39
G21D	1.78
G21F	1.58
A15F	1.93
A15Q	1.49
A15Y	2.17
A15R	2.46
A15W	1.8
A15L	1.19
A15D	1.66
A15S	1.6
A15C	1.71
A15T	1.47
A15G	1.54
A15N	1.8
A15K	1.25
L5E	3.98
L5N	4.52
L5D	4.05
L5W	1.85

Variant	protein stability index
L5M	2.88
L5S	4.64
L5A	4.21
L5P	4.32
L5Y	3.49
L5V	2.71
L5Q	3.78
L5C	3.17
L5G	4.71
G14Y	3
G14W	2.76
G14L	1.41
G14F	1.85
G14M	1.92
G14A	2.84
G14C	1.84
G14K	1.86
G14V	2.04
R19N	1.71
R19E	1.43
R19W	1.48
R19Q	1.75
R19H	1.88
R19S	1.79
R19K	1.89
